Biological target: GLP-1 receptor of RIN-m5F rat insulinoma cells (rat) (UniProt P32301)

Substance | In-vitro titer (%) (EC50 of cAMP in RIN-m5F cells, compared)
Exendin-4(Lys27)-PEG-Fc | 6.3%
Exendin-4(N)-PEG-Fc | < 0.2%

Reference: patent US20150056223A1, “PHARMACEUTICAL COMPOSITION FOR THE PREVENTION OR TREATMENT OF NON-ALCOHOLIC FATTY LIVER DISEASE” (HANMI SCIENCE CO., LTD, priority 2012, published 2015)
